The values that follow come from paper PMC3057327 (Methods (San Diego, Calif.), 2011).

Data set [1] concerns the molecule itself. Description: aggregates isolated by centrifugation + limited proteolysis.
The data set “sedimentation assay” concerns the molecule itself. Briefly: sedimentation assay.

As to MATLEKLMKAFESLKSFQQQQQQQQQQQQQQQQQQQQPPPPPPPPPPKK [htt^NTQ20P10K2 (huntingtin N-terminal fragment peptide)], the binding result in data set [1] is given as “binds”.

For the protein KKQQQQQQQQQQQQQQQQQQQQQQQKK [K2Q23K2], in “sedimentation assay”, the binding result was “binds”.
